{"source": "patent US20250313602A1", "about": "(published 2025)", "binders": {"B1": {"name": "IL-2-Fc fusion protein (Fc fusion)", "chain": "APTSSSTKKTQLQLEHLLLDLQMILNGINNYKNPKLTAMLTFKFYMPKKATELKHLQCLEEELKPLEEVLNLAQSKNFHFDPRDVVSNINVFVLELKGSETTFMCEYADETATIVEFLNRWITFCQSIISTLTGGGGSGGGGSGGGGSEPKSCDKTHTCPPCPAPEAAGGPSVFLFPPKPKDTLYITREPEVTCVVVDVSHEDPEVKFNWYVDGVEVHNAKTKPREEQYNSTYRVVSVLTVLHQDWLNGKEYKCKVSNKALPAPIEKTISKAKGQPREPQVYTLPPSREEMTKNQVSLTCLVKGFYPSDIAVEWESNGQPENNYKTTPPVLDSDGSFFLYSKLTVDKSRWQQGNVFSCSVMHEALHNHYTQKSLSLSPK"}}, "key": {"[1]": {"target": "T1, human IL-2Rβ protein (10696-H05H, Sino Biological) (human, UniProt P14784 27-239)", "T1 chain": "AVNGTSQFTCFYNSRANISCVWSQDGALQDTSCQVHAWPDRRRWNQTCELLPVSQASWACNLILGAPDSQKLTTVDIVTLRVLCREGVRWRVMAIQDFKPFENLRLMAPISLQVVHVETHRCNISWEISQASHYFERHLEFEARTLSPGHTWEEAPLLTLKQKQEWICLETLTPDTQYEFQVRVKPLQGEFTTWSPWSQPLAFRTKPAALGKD", "test": "ELISA"}, "[2]": {"target": "T2, human IL-2Rα protein (10165-H08H, Sino Biological) (human, UniProt P01589 22-213)", "T2 chain": "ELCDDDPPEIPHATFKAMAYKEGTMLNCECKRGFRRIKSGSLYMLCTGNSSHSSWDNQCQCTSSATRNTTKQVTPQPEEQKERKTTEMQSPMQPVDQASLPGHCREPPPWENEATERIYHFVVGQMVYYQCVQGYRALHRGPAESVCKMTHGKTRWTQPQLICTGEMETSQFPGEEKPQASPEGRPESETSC", "test": "ELISA"}}}
{"binder": "B1", "values": [{"measurement": "EC50", "setting": "[1]", "result": 94, "unit": "nM"}, {"measurement": "EC50", "setting": "[2]", "result": 3.06, "unit": "nM"}]}
